Experiments:
[1] = target: recombinant mouse-TIGIT (mouse) (UniProt P86176); experiment: ELISA on recombinant mouse-TIGIT
[2] = target: human TIGIT stably expressed on cells (Jurkat; 293T) (human) (UniProt Q495A1); experiment: flow cytometry (CytoFlex), whole cell binding on h-TIGIT cells; representative of three experiments
[3] = target: recombinant human TIGIT extra cellular domain (ECD) protein (human) (UniProt Q495A1); experiment: ELISA on recombinant human TIGIT ECD
[4] = target: human TIGIT stably expressed on cells (Jurkat; 293T) (human) (UniProt Q495A1); experiment: whole cell binding, flow cytometry, n=3
[5] = target: human TIGIT stably expressed on cells (Jurkat; 293T) (human) (UniProt Q495A1); experiment: cell-based or functional assay
[6] = target: recombinant cynomolgus TIGIT (cyno-TIGIT ECD) (cynomolgus monkey); experiment: ELISA on recombinant cyno-TIGIT
Chain of recombinant cynomolgus TIGIT (cyno-TIGIT ECD) (cynomolgus monkey) (chain, as listed by the source): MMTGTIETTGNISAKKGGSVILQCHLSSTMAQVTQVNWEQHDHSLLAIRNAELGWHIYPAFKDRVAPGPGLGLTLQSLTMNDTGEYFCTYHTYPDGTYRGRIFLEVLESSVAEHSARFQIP

Chain of human TIGIT stably expressed on cells (Jurkat; 293T) (human) (Q495A1 22-244 limits assumed): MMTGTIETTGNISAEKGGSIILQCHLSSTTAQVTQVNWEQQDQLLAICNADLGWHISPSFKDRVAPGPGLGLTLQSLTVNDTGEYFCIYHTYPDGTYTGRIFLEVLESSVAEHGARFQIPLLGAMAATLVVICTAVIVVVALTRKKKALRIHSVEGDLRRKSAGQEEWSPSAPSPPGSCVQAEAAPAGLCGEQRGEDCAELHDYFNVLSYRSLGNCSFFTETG
Chain of recombinant mouse-TIGIT (mouse) (P86176 29-148 limits assumed): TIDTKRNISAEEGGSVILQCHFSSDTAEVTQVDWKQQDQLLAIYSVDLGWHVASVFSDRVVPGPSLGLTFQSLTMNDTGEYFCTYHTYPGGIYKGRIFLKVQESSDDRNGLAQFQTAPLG
Chain of recombinant human TIGIT extra cellular domain (ECD) protein (human) (Q495A1 22-138 limits assumed): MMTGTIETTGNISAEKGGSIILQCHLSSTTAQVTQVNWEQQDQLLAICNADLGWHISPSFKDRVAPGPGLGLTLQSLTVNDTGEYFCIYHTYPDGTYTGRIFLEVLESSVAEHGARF

Row | EC50 (read off the curve) [1] [µg/mL] | EC50 (read off the curve) [2] [nM] | EC50 (read off the curve) [3] [µg/mL] | EC50 [4] [nM] | EC50, TIGIT blockade NFAT luciferase reporter assay [5] [nM] | EC50 (read off the curve) [6] [µg/mL] | Substance
1 | 0.08 | – | – | – | – | – | anti-mouse TIGIT reference antibody (Biolegend #142101)
2 | – | 0.5 | 0.1 | 0.61 | 0.72 | 0.1 | Reference Ab 2 (reference anti-human-TIGIT antibody with the amino acid sequences of Tiragolumab, U.S. 2017/0088613 A1)

Source: patent US20230037911A1
